We go through 76 sequences from the supplement of paper PMC7877785.

± gives the uncertainty stated by the source.

This data set is described as follows: self-splicing fitness, log relative to wild type (ln ratio); higher = more splicing; Tetrahymena group I intron in knt gene, E. coli kanamycin selection, DiMSum; sequences stand for … in CUCUCU…GGAGGGAAAAGUUAUCAGGCAUGCACCUGGUAGCUAGUCUUUAAACCAAUAGAUUGCAUCGGUUUAAAAGGCAAGACCGUCAAAUUGCGGGAAAGGGGUCAACAGCCGUUCAGUACCAAGUCUCAGGGGAAACUUUGAGAUGGCCUUGCAAAGGGUAUGGUAAUAAGCUGACGGACAUGGUCCUAACCACGCAGCCAAGUCCUAAGUCAACAGAUCUUCUGUUGAUAUGGAUGCAGUUCACAGACUAAAUGUCGGUCGGGGAAGAUGUAUUCUUCUCAUAAGAUAUAGUCGGACCUCUCCUUAAUGGGAGCUAGCGGAUGAAGUGAUGCAACACUGGAGCCGCUGGGAACUAAUUUGUAUGCGAAAGUAUAUUGAUUAGUUUUGGAGUACUCGUGGUCG
Summed up:
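Fitness was computed with DiMSum as the error-weighted combination of replicate fold changes, kanamycin versus none, each normalised to wild type. The library randomised all eight intron nucleotides of the P1ex region, with the intron placed in the knt kanamycin-resistance gene on pET-22b(+) in E. coli BL21(DE3). Six replicate transformations were grown overnight at 37°C or 30°C on LB agar with or without 25 μg/mL kanamycin, plus 100 μg/mL carbenicillin, 50 μM IPTG and 0.2% rhamnose. Pooled colonies were amplicon-sequenced on an Illumina HiSeq 2500.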

For AUUAAGCAAUAUUACGUAAC, the “self-splicing fitness (ln)” value reads like this: (30 °C) -2.12 ± 0.12; (37 °C) -1.88 ± 0.14.
In the case of GGGAAGCAAUAUUACGGGGC, the “self-splicing fitness (ln)” value (30 °C) is -2.85 ± 0.34.
In the case of AAAAAGCAAUAUUACGAUCC, the “self-splicing fitness (ln)” value is, setting by setting: (30 °C) -0.549 ± 0.12; (37 °C) 0.153 ± 0.18.
The matching figures for AUAAAGCAAUAUUACGCGAC: -1.4 ± 0.13 and -0.298 ± 0.13.
Taken in the same sequence, the figures for ACUCAGCAAUAUUACGCUUU were -1.85 ± 0.095 and -0.42 ± 0.11.
Consider CAUAAGCAAUAUUACGGAUU, for which the “self-splicing fitness (ln)” value is, setting by setting: (30 °C) -3.15 ± 0.19; (37 °C) -2.25 ± 0.23.
The matching figures for UCGCAGCAAUAUUACGUCCU: -1 ± 0.097 and -0.105 ± 0.092.
Take GUACAGCAAUAUUACGUCGC: the “self-splicing fitness (ln)” value (30 °C) is -2.57 ± 0.15 and the “self-splicing fitness (ln)” value (37 °C) was -0.812 ± 0.16.
Taken in the same sequence, the figures for AGUUAGCAAUAUUACGAGUG were -3.77 ± 0.31 and -1.78 ± 0.25.
Taken in the same sequence, the figures for GCGAAGCAAUAUUACGCAUC were -4.03 ± 0.44 and -1.78 ± 0.23.
As to AAAGAGCAAUAUUACGACUU, the “self-splicing fitness (ln)” value by setting is: (30 °C) -0.0829 ± 0.067; (37 °C) -0.0473 ± 0.079.
Take CACUAGCAAUAUUACGACUA: the “self-splicing fitness (ln)” value by setting is: (30 °C) -2.82 ± 0.23; (37 °C) -1.43 ± 0.2.
Taken in the same sequence, the figures for GCGAAGCAAUAUUACGCACU were -1.72 ± 0.18 and -0.633 ± 0.21.
Consider GGCAAGCAAUAUUACGAUCC, for which the “self-splicing fitness (ln)” value was -1.31 ± 0.22 (30 °C) and -0.615 ± 0.27 (37 °C).
Taken in the same sequence, the figures for GUGUAGCAAUAUUACGUGAU were -1.59 ± 0.17 and 0.0886 ± 0.19.
The matching figures for UGCCAGCAAUAUUACGCAUA: -1.67 ± 0.088 and -1.26 ± 0.087.
Take CAUAAGCAAUAUUACGGGUC: the “self-splicing fitness (ln)” value runs as follows: (30 °C) -3.31 ± 0.24; (37 °C) -2.97 ± 0.28.
Taken in the same sequence, the figures for CUCAAGCAAUAUUACGGGGC were -4.64 ± 0.41 and -3.31 ± 0.33.
For GUCCAGCAAUAUUACGAUGU, the “self-splicing fitness (ln)” value is -0.9 ± 0.07 (30 °C) and -0.235 ± 0.083 (37 °C).
The matching figures for AAGUAGCAAUAUUACGACGG: -1.74 ± 0.29 and -1.66 ± 0.34.
The matching figures for AGCGAGCAAUAUUACGGCCA: -1.8 ± 0.099 and -1.27 ± 0.078.
Taken in the same sequence, the figures for GUAUAGCAAUAUUACGCCCG were -1.63 ± 0.17 and -1.37 ± 0.23.
In the case of GCGAAGCAAUAUUACGCAUG, the “self-splicing fitness (ln)” value reads like this: (30 °C) -3.12 ± 0.44; (37 °C) -2.76 ± 0.24.
Taken in the same sequence, the figures for UACCAGCAAUAUUACGCACU were -0.478 ± 0.063 and 0.393 ± 0.081.
For the sequence UACUAGCAAUAUUACGCAUC, the “self-splicing fitness (ln)” value was -2.36 ± 0.14 (30 °C) and -1.53 ± 0.18 (37 °C).
Taken in the same sequence, the figures for UCUCAGCAAUAUUACGGCUA were -0.678 ± 0.29 and -2.19 ± 0.32.
The matching figures for CUGGAGCAAUAUUACGUGCG: -1.44 ± 0.092 and -1.19 ± 0.12.
Taken in the same sequence, the figures for GUCCAGCAAUAUUACGGGCG were -2.53 ± 0.12 and -0.72 ± 0.099.
In the case of GCAAAGCAAUAUUACGUCUG, the “self-splicing fitness (ln)” value is, setting by setting: (30 °C) -2.54 ± 0.11; (37 °C) -1.69 ± 0.085.
Taken in the same sequence, the figures for AGCUAGCAAUAUUACGUAAC were -2.01 ± 0.15 and -0.993 ± 0.16.
Taken in the same sequence, the figures for CCACAGCAAUAUUACGCUGC were -3.06 ± 0.17 and -2.72 ± 0.28.
Take GAACAGCAAUAUUACGCCAC: the “self-splicing fitness (ln)” value (30 °C) is -3.15 ± 0.22.
With CAGCAGCAAUAUUACGACCA, the “self-splicing fitness (ln)” value was -1.88 ± 0.19 (30 °C) and -1.22 ± 0.18 (37 °C).
The matching figures for GGUAAGCAAUAUUACGCGUU: -1.34 ± 0.091 and -0.615 ± 0.13.
For GGCAAGCAAUAUUACGCAAG, the “self-splicing fitness (ln)” value (30 °C) is -4.16 ± 0.36 and the “self-splicing fitness (ln)” value (37 °C) is -2.04 ± 0.23.
The matching figures for GUACAGCAAUAUUACGACCA: -1.85 ± 0.25 and -0.829 ± 0.33.
Taken in the same sequence, the figures for GCUUAGCAAUAUUACGCGCG were -0.0422 ± 0.094 and -0.149 ± 0.13.
The matching figures for UGCGAGCAAUAUUACGACGG: -1.41 ± 0.15 and -0.347 ± 0.16.
Turning to UCAAAGCAAUAUUACGGAGU, the “self-splicing fitness (ln)” value (30 °C) is -3.11 ± 0.13 and the “self-splicing fitness (ln)” value (37 °C) is -1.69 ± 0.14.
On to GUGCAGCAAUAUUACGAGAA, for which the “self-splicing fitness (ln)” value (37 °C) was -2.25 ± 0.3.
Take CUCCAGCAAUAUUACGAAAA: the “self-splicing fitness (ln)” value is, setting by setting: (30 °C) -2.78 ± 0.28; (37 °C) -1.89 ± 0.3.
With UGUAAGCAAUAUUACGGCGC, the “self-splicing fitness (ln)” value was -1.87 ± 0.18 (30 °C) and -1.43 ± 0.25 (37 °C).
The matching figures for AAAGAGCAAUAUUACGAACU: -1.41 ± 0.18 and -1.14 ± 0.27.
Taken in the same sequence, the figures for AGUUAGCAAUAUUACGCCCU were -0.19 ± 0.12 and -0.312 ± 0.15.
The matching figures for AUGUAGCAAUAUUACGAGGA: -3 ± 0.41 and -2.11 ± 0.43.
Consider GAAAAGCAAUAUUACGUUAC, for which the “self-splicing fitness (ln)” value (30 °C) is -2.67 ± 0.12 and the “self-splicing fitness (ln)” value (37 °C) is -1.84 ± 0.13.
The matching figures for GUGAAGCAAUAUUACGAAUA: -1.91 ± 0.1 and -0.485 ± 0.23.
The matching figures for CCGGAGCAAUAUUACGGAGA: -3.99 ± 0.39 and -2.24 ± 0.25.
The matching figures for GUCUAGCAAUAUUACGUGCA: -1.38 ± 0.096 and -0.535 ± 0.1.
Regarding CAACAGCAAUAUUACGUAUU, the “self-splicing fitness (ln)” value was -3.48 ± 0.17 (30 °C) and -1.58 ± 0.11 (37 °C).
The matching figures for UUUAAGCAAUAUUACGUGGA: -1.99 ± 0.18 and -1.56 ± 0.2.
Taken in the same sequence, the figures for GGUGAGCAAUAUUACGACGG were -2.18 ± 0.29 and -1.74 ± 0.3.
The matching figures for CAAUAGCAAUAUUACGGUGU: -3.14 ± 0.16 and -2.27 ± 0.18.
On to AGGGAGCAAUAUUACGAUUA, for which the “self-splicing fitness (ln)” value is -2.12 ± 0.18 (30 °C) and -2.51 ± 0.35 (37 °C).
The matching figures for GGGCAGCAAUAUUACGCCAC: -3.34 ± 0.37 and -1.22 ± 0.38.
Taken in the same sequence, the figures for AUGUAGCAAUAUUACGUAAA were -2.25 ± 0.25 and -1.9 ± 0.26.
Taken in the same sequence, the figures for CCGGAGCAAUAUUACGAAAG were -2.31 ± 0.11 and -1.05 ± 0.12.
In the case of ACACAGCAAUAUUACGGAUC, the “self-splicing fitness (ln)” value was -2.94 ± 0.12 (30 °C) and -2.1 ± 0.15 (37 °C).
The matching figures for CGGAAGCAAUAUUACGCCCU: -0.363 ± 0.13 and 0.204 ± 0.15.
As for GCGUAGCAAUAUUACGAAGU, the “self-splicing fitness (ln)” value by setting is: (30 °C) -2.22 ± 0.15; (37 °C) -1.11 ± 0.16.
Taken in the same sequence, the figures for CCGAAGCAAUAUUACGGAUU were -2.88 ± 0.27 and -3.15 ± 0.35.
The matching figures for AAACAGCAAUAUUACGAAAC: -2.4 ± 0.24 and -1.51 ± 0.23.
Taken in the same sequence, the figures for GUAGAGCAAUAUUACGCUUC were -3.16 ± 0.45 and -1.63 ± 0.27.
For the sequence AUUCAGCAAUAUUACGACUG, the “self-splicing fitness (ln)” value (30 °C) is -1.47 ± 0.13 and the “self-splicing fitness (ln)” value (37 °C) was -0.646 ± 0.15.
GUAUAGCAAUAUUACGGGCC: the “self-splicing fitness (ln)” value (37 °C) was -1.55 ± 0.27.
In the case of AAGAAGCAAUAUUACGUGGC, the “self-splicing fitness (ln)” value by setting is: (30 °C) -4.15 ± 0.22; (37 °C) -2.99 ± 0.2.
With UACGAGCAAUAUUACGUUUU, the “self-splicing fitness (ln)” value is -3.66 ± 0.17 (30 °C) and -2.4 ± 0.16 (37 °C).
AAAUAGCAAUAUUACGUAGG: the “self-splicing fitness (ln)” value (30 °C) is -2.59 ± 0.1 and the “self-splicing fitness (ln)” value (37 °C) is -1.96 ± 0.1.
Taken in the same sequence, the figures for UAAAAGCAAUAUUACGAAAU were -3.04 ± 0.16 and -2.45 ± 0.21.
As for CCGGAGCAAUAUUACGCCAC, the “self-splicing fitness (ln)” value is, setting by setting: (30 °C) -3.02 ± 0.49; (37 °C) 0.445 ± 0.34.
The matching figures for AGCUAGCAAUAUUACGUGGU: -2.52 ± 0.17 and -2.18 ± 0.24.
The matching figures for CGCCAGCAAUAUUACGUUUC: -3.41 ± 0.12 and -2.42 ± 0.24.
Taken in the same sequence, the figures for CCGAAGCAAUAUUACGUUAU were -3.94 ± 0.32 and -2.87 ± 0.2.
Consider UCGGAGCAAUAUUACGUUGU, for which the “self-splicing fitness (ln)” value (30 °C) was -3.7 ± 0.22 and the “self-splicing fitness (ln)” value (37 °C) was -1.93 ± 0.21.
As to CUAAAGCAAUAUUACGCUUG, the “self-splicing fitness (ln)” value reads like this: (30 °C) -2.8 ± 0.15; (37 °C) -1.58 ± 0.17.
Taken in the same sequence, the figures for GGCCAGCAAUAUUACGGGAA were -1.98 ± 0.11 and -0.198 ± 0.11.
